Measurements published in article PMC6596994 (Nature, 2019).
Read-outs that look alike come from different tables or passages of the source. Ends that are not written are not given here.

T1: human IRF-3 (residue 189–427) (human, UniProt Q14653 189-427)
T1 sequence: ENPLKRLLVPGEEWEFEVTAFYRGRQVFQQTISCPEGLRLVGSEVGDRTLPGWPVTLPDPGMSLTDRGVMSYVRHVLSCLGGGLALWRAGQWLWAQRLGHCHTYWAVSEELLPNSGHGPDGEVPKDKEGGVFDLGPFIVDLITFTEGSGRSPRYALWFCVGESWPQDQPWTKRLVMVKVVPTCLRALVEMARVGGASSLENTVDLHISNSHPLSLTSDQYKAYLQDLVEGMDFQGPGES

T2: human STING CTT (residue 342 to 379, V343W), crystallised (human, UniProt Q86WV6 342-379, V343W)
T2 chain: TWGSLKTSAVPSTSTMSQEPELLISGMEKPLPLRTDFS

B1: hSTING (155–379), unphosphorylated (domain or fragment)
chain: VAHGLAWSYYIGYLRLILPELQARIRTYNQHYNNLLRGAVSQRLYILLPLDCGVPDNLSMADPNIRFLDKLPQQTGDHAGIKDRVYSNSIYELLENGQRAGTCVLEYATPLQTLFAMSQYSQAGFSREDRLEQAKLFCRTLEDILADAPESQNNCRLIAYQEPADDSSFSLSQEVLRHLRQEEKEEVTVGSLKTSAVPSTSTMSQEPELLISGMEKPLPLRTDFS
modifications: biotin on the Avi tag
B2: hSTING (155–379) L374A (domain or fragment)
chain: VAHGLAWSYYIGYLRLILPELQARIRTYNQHYNNLLRGAVSQRLYILLPLDCGVPDNLSMADPNIRFLDKLPQQTGDHAGIKDRVYSNSIYELLENGQRAGTCVLEYATPLQTLFAMSQYSQAGFSREDRLEQAKLFCRTLEDILADAPESQNNCRLIAYQEPADDSSFSLSQEVLRHLRQEEKEEVTVGSLKTSAVPSTSTMSQEPELLISGMEKPLPARTDFS
modifications: biotin on the Avi tag
B3: hSTING (155–379, T376E F378M S379W), biotin-Avi-His6-SUMO fusion (domain or fragment)
chain: VAHGLAWSYYIGYLRLILPELQARIRTYNQHYNNLLRGAVSQRLYILLPLDCGVPDNLSMADPNIRFLDKLPQQTGDHAGIKDRVYSNSIYELLENGQRAGTCVLEYATPLQTLFAMSQYSQAGFSREDRLEQAKLFCRTLEDILADAPESQNNCRLIAYQEPADDSSFSLSQEVLRHLRQEEKEEVTVGSLKTSAVPSTSTMSQEPELLISGMEKPLPLREDMW
modifications: biotin on the Avi tag
B4: Mouse TBK1 (1–657, S172A) (domain or fragment)
chain: MQSTSNHLWLLSDILGQGATANVFRGRHKKTGDLYAVKVFNNISFLRPVDVQMREFEVLKKLNHKNIVKLFAIEEETTTRHKVLIMEFCPCGSLYTVLEEPSNAYGLPESEFLIVLRDVVGGMNHLRENGIVHRDIKPGNIMRVIGEDGQSVYKLTDFGAARELEDDEQFVALYGTEEYLHPDMYERAVLRKDHQKKYGATVDLWSVGVTFYHAATGSLPFRPFEGPRRNKEVMYKIITGKPSGAISGVQKAENGPIDWSGDMPLSCSLSQGLQALLTPVLANILEADQEKCWGFDQFFAETSDVLHRMVIHVFSLQHMTAHKIYIHSYNTAAVFHELVYKQTKIVSSNQELIYEGRRLVLELGRLAQHFPKTTEENPIFVTSREQLNTVGLRYEKISLPKIHPRYDLDGDASMAKAVTGVVCYACRTASTLLLYQELMRKGVRWLVELVKDDYNETVHKKTEVVITLDFCIRNIEKTVKVYEKLMKVNLEAAELGEISDIHTKLLRLSSSQGTIESSLQDISSRLSPGGLLADTWAHQEGTHPRDRNVEKLQVLLNCITEIYYQFKKDKAERRLAYNEEQIHKFDKQKLYYHATKAMSHFSEECVRKYEAFKDKSEEWMRKMLHLRKQLLSLTNQCFDIEEEVSKYQDYTNELQET
B5: hSTING (155–379, T376E) (domain or fragment)
chain: VAHGLAWSYYIGYLRLILPELQARIRTYNQHYNNLLRGAVSQRLYILLPLDCGVPDNLSMADPNIRFLDKLPQQTGDHAGIKDRVYSNSIYELLENGQRAGTCVLEYATPLQTLFAMSQYSQAGFSREDRLEQAKLFCRTLEDILADAPESQNNCRLIAYQEPADDSSFSLSQEVLRHLRQEEKEEVTVGSLKTSAVPSTSTMSQEPELLISGMEKPLPLREDFS
modifications: biotin on the Avi tag
B6: Human TBK1 (1–657, S172A) (domain or fragment)
chain: MQSTSNHLWLLSDILGQGATANVFRGRHKKTGDLFAIKVFNNISFLRPVDVQMREFEVLKKLNHKNIVKLFAIEEETTTRHKVLIMEFCPCGSLYTVLEEPSNAYGLPESEFLIVLRDVVGGMNHLRENGIVHRDIKPGNIMRVIGEDGQSVYKLTDFGAARELEDDEQFVALYGTEEYLHPDMYERAVLRKDHQKKYGATVDLWSIGVTFYHAATGSLPFRPFEGPRRNKEVMYKIITGKPSGAISGVQKAENGPIDWSGDMPVSCSLSRGLQVLLTPVLANILEADQEKCWGFDQFFAETSDILHRMVIHVFSLQQMTAHKIYIHSYNTATIFHELVYKQTKIISSNQELIYEGRRLVLEPGRLAQHFPKTTEENPIFVVSREPLNTIGLIYEKISLPKVHPRYDLDGDASMAKAITGVVCYACRIASTLLLYQELMRKGIRWLIELIKDDYNETVHKKTEVVITLDFCIRNIEKTVKVYEKLMKINLEAAELGEISDIHTKLLRLSSSQGTIETSLQDIDSRLSPGGSLADAWAHQEGTHPKDRNVEKLQVLLNCMTEIYYQFKKDKAERRLAYNEEQIHKFDKQKLYYHATKAMTHFTDECVKKYEAFLNKSEEWIRKMLHLRKQLLSLTNQCFDIEEEVSKYQEYTNELQET

Experiments:
[1] = molecular target: p-hSTING (155–379) (human) (UniProt Q86WV6); experiment: SPR
[2] = molecular target: B6; experiment: SPR
[3] = molecular target: B4; experiment: SPR
[4] = molecular target: B6; experiment: SPR; remark: listed apart in the source
[5] = molecular target: B4; experiment: SPR; remark: listed apart in the source
[6] = molecular target: T1, human IRF-3 (residue 189–427); experiment: SPR
[7] = molecular target: T2, human STING CTT (residue 342 to 379, …); experiment: crystal structure
crystal structure = molecular target: the molecule itself; experiment: crystal structure
hSTING (155–379) P373A = hSTING (155–379) P373A (human, UniProt Q86WV6 155-379, P373A, biotin on the Avi tag); experiment: SPR
hSTING (155–379) L372A = hSTING (155–379) L372A (human, UniProt Q86WV6 155-379, L372A, biotin on the Avi tag); experiment: SPR

Molecule | Kd [2] [µM] | Kd [3] [µM] | also measured
human TBK1 K584A (from UniProt Q9UHD2 1-657) (domain or fragment) | – | – | fold reduction of the binding affinity against wild type TBK1 [1]: 20 fold
human TBK1 Q581A (from UniProt Q9UHD2 1-657) (domain or fragment) | – | – | fold reduction of the binding affinity against wild type TBK1 [1]: 20 fold
TWGSLKTSAVPSTSTMSQEPELLISGMEKPLPLRTDFS [p-hSTING (342–379)] | 16.8 | 15.3 | –
B1 | ~290 | ~170 | Kd [4]: ~230 µM; Kd [5]: ~260 µM
B2 | – | – | binding result [6]: binds
B3 | 1.4 | 1.2 | –
STSTMSQEPELLISGMEKPLPLRTDFS [p-hSTING (353–379)] | 22.6 | 25.1 | –
B4 | – | – | stoichiometry N [7]: 1 TBK1 chain per STING peptide (2:2); stoichiometry N (crystal structure): 2
SGMEKPLPLREDWI (also: biotin on the Avi tag) [hSTING (366–379, T376E F378W S379I)] | – | ~59 | –
B5 | – | ~62 | –
SGMEKPLPLREDWF (also: biotin on the Avi tag) [hSTING (366–379, T376E F378W S379F)] | – | 27.1 | –
SGMEKPLPLREDWM (also: biotin on the Avi tag) [hSTING (366–379, T376E F378W 3379M)] | – | 43.9 | –
SGMEKPLPLREDWE (also: biotin on the Avi tag) [hSTING (366–379, T376E F378W S379E)] | – | ~127 | –
B6 | – | – | fold reduction of the binding affinity against wild type STING (hSTING (155–379) P373A): ~10 fold; fold reduction of the binding affinity against wild type STING (hSTING (155–379) L372A): ~10 fold
SGMEKPLPLRTDFS [p-hSTING (366–379)] | 35.6 | 30.8 | –
